In patent US20210340205A1 (Novartis, published 2021):

Molecular target: T1, Human cRET(ECD)-Fc (human)
T1 construct: also called RET-Fc
Test: MSD plate assay, cRET(ECD)-Fc coated; biotinylated anti-6xHis mAb and streptavidin sulfo-tag
Experimental: Methods: To generate soluble GDF15/GFRAL complexes in vitro, recombinant GFRAL(D2D3)-App, GFRAL(ECD)-His, and GFRAL(ECD)-Fc proteins purified in Example 1 were freshly mixed with equimolar amounts of biotinylated His-GDF15 (1250 pM) in DPBS supplemented with 50 μM CaCl₂. The mixtures were incubated at room temperature for 60 min to allow complex formation. The complex made was stable at 4° C. and was used directly for in vitro binding assays against cRET(ECD)-Fc coated on plastic plates without further purification. Three different GDF15/GFRAL ECD complexes were prepared, including His-GDF15(biotin)/GFRAL(D2D3)-App, His-GDF15(biotin)/GFRAL (ECD)-His, and His-GDF15(biotin)/GFRAL (ECD)-Fc in the same manner. […] His-GDF15(L294R) was mixed with GFRAL(ECD)-His to generate a negative control for GDF15/GFRAL/cRET interaction. […]
Methods: Mixtures of purified biotinylated His-GDF15 and GFRAL(ECD)-His or His-GDF15(L294R) and GFRAL(ECD)-His were prepared as described in Example 3. […] Binding of proteins to plates coated with cRET(ECD)-Fc was detected using biotinylated mouse anti-6×His tag monoclonal antibody followed by streptavidin sulfo-tag, and otherwise by methods described in Example 3.

T1 sequence (chain, as listed by the source): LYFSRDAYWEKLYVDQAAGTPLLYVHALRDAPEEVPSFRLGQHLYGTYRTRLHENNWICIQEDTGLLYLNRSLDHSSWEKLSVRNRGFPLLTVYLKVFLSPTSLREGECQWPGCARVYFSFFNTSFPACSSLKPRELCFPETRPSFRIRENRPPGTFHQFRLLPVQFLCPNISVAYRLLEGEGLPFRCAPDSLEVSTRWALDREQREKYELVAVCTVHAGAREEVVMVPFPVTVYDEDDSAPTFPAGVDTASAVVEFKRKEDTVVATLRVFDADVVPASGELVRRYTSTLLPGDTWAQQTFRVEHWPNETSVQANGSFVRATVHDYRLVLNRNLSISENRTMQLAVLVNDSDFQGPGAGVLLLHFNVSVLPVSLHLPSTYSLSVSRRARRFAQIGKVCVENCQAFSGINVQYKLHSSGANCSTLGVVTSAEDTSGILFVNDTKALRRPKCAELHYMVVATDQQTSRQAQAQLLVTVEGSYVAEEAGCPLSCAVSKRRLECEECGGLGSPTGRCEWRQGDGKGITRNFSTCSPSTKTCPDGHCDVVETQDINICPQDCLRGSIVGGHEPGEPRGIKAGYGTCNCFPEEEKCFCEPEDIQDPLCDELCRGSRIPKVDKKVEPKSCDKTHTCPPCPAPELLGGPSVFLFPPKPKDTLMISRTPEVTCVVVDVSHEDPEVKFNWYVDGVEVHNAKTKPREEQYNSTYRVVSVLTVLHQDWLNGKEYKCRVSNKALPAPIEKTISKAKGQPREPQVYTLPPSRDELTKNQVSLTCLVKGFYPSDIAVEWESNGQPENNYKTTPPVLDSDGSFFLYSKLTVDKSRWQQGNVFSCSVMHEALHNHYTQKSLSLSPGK

Binder	binding result
His-GDF15(L294R)/GFRAL(ECD)-His mixture (other) chain 1: HHHHHHGSGGARNGDHCPLGPGRCCRLHTVRASLEDLGWADWVLSPREVQVTMCIGACPSQFRAANMHAQIKTSLHRLKPDTVPAPCCVPASYNPMVLIQKTDTGVSRQTYDDLLAKDCHCI chain 2: QTNNCTYLREQCLRDANGCKHAWRVMEDACNDSDPGDPCKMRNSSYCNLSIQYLVESNFQFKECLCTDDFYCTVNKLLGKKCINKSDNVKEDKFKWNLTTRSHHGFKGMWSCLEVAEACVGDVVCNAQLASYLKACSANGNPCDLKQCQAAIRFFYQNIPFNIAQMLAFCDCAQSDIPCQQSKEALHSKTCAVNMVPPPTCLSVIRSCQNDELCRRHYRTFQSKCWQRVTRKCHEDENCISTLSKQDLTCSGSDDCKAAYIDILGTVLQVQCTCRTITQSEESLCKIFQHMLHRKSCFNYPTLSNVKGMALYTRKHANKITLTGFHSPFNGEGSHHHHHH	no binding (tested: 0-5 log 10 pM)
His-GDF15(L294R) (ligand, Non-functional mutant, prepared in the same way as wild-type His-GDF15 (E. coli, see US 2017/204149); also called His-GDF15(L294R) mutant) HHHHHHGSGGARNGDHCPLGPGRCCRLHTVRASLEDLGWADWVLSPREVQVTMCIGACPSQFRAANMHAQIKTSLHRLKPDTVPAPCCVPASYNPMVLIQKTDTGVSRQTYDDLLAKDCHCI	no binding (tested: 0-5 log 10 pM)
